# Test results from publication PMC12747129 (Science (New York, N.Y.), 2023).
# B1: E. coli MraY (EcMraY), wild type (enzyme)
# chain: MLVWLAEHLVKYYSGFNVFSYLTFRAIVSLLTALFISLWMGPRMIAHLQKLSFGQVVRNDGPESHFSKRGTPTMGGIMILTAIVISVLLWAYPSNPYVWCVLVVLVGYGVIGFVDDYRKVVRKDTKGLIARWKYFWMSVIALGVAFALYLAGKDTPATQLVVPFFKDVMPQLGLFYILLAYFVIVGTGNAVNLTDGLDGLAIMPTVFVAGGFALVAWATGNMNFASYLHIPYLRHAGELVIVCTAIVGAGLGFLWFNTYPAQVFMGDVGSLALGGALGIIAVLLRQEFLLVIMGGVFVVETLSVILQVGSFKLRGQRIFRMAPIHHHYELKGWPEPRVIVRFWIISLMLVLIGLATLKVR
# Target: the molecule itself
# Assay: cryo-EM structure
protein,measurement,value
B1,stoichiometry N,2
